Laboratory results from CN111018977A (DONGGUAN PENGZHI BIOTECHNOLOGY CO LTD, dated 2020).
Where a chain is given by its changes, count along the chain named.

B1: WT 1-1 (antibody, V domains shown)
VH: QVQLQQSGTELAKPGASVKFSCKASDYTFSTYWMYWIKQRPGQGLEWIGYINPSTGHTEYNQKFKDKATLTADKSSSTAYMQLNSLTSEDSAVYYCARRYYGPFAMDYWGQGTSVTVSS
VL: EIFLTQSPAIMSASPGEKVTMTCSASSSVSYAHWYQQKSGTSPKRWIYDSSKIASGIPVRFSGSGSGTSYSLTISSMEAEDAATYYCQNWSTNPYTFGGGTKLEIKR
B2: WT 1-7 (antibody, V domains shown)
VH: B1 VH with S30T, I51L
VL: B1 VL with S27T, I53L
B3: WT 1-4 (antibody, V domains shown)
VH: B1 VH with T55S, K63R, R99K
VL: B1 VL with S27T, S28T, I47L

Molecular target: T1, CTNI质控品重组抗原 (人心肌肌钙蛋白I, cTnI) (human, UniProt P19429 1-210, limits assumed)
T1 construct: also called CTNI质控品重组蛋白
T1 sequence (P19429 whole entry): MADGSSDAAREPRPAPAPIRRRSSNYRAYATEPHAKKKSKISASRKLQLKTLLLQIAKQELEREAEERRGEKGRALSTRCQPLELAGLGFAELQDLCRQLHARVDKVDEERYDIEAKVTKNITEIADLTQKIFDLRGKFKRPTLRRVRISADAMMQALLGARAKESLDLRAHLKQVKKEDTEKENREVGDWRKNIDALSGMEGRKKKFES
Assay: AMC sensor (biolayer interferometry), antibody immobilised at 10 ug/ml, cTnI QC recombinant protein in serial dilution in PBST

Row | Kd [nM] | koff [s⁻¹] | kon [M⁻¹ s⁻¹] | Binder
1 | 1.43 | 5.51e-05 | 38500 | B1
2 | 0.728 | 0.000132 | 182000 | B2
3 | 1.04 | 3.9e-05 | 37500 | B3
